Values of other authors in PMC12990809.

Experiments:
Test in all cases: pulldown
Conditions in all cases: 20 nM protein, 1.5 uM RNA pool; 20 mM HEPES pH 7.8, 70 mM KCl, 10 mM NaCl, 10% glycerol, 2 mM DTT, 0.1 ug/uL BSA; 30 min, 4 C (protocol of this paper; not …); cited from earlier work
[1] = biological target: T1, Syp G309D (Drosophila melanogaster) (UniProt Q7KSA0)
T1 sequence: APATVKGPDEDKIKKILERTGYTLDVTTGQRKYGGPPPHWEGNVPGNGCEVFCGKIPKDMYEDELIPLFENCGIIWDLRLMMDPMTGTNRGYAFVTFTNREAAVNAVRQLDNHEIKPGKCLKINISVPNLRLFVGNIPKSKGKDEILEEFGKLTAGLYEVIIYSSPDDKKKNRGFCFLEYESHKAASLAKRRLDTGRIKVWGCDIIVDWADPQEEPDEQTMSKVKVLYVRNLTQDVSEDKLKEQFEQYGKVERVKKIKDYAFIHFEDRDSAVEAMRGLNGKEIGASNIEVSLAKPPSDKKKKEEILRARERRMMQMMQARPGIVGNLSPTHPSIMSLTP

[2] = biological target: T2, cpo (Drosophila melanogaster) (UniProt Q01617)
T2 sequence: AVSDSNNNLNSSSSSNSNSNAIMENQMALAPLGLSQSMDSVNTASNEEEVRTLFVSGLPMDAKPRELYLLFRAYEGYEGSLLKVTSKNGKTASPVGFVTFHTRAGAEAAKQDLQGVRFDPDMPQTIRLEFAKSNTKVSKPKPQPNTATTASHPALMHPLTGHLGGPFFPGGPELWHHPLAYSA

[3] = biological target: T3, Rbp1-like (Drosophila melanogaster) (UniProt M9MS48)
T3 sequence: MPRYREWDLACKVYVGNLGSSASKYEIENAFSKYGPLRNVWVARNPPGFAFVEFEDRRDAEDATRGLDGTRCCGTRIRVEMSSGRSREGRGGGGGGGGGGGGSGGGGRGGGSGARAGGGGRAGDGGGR

[4] = biological target: Rbp9 (Drosophila melanogaster) (UniProt A2RVE5)
Sequence of Rbp9 (Drosophila melanogaster) (A2RVE5 entry or part of it): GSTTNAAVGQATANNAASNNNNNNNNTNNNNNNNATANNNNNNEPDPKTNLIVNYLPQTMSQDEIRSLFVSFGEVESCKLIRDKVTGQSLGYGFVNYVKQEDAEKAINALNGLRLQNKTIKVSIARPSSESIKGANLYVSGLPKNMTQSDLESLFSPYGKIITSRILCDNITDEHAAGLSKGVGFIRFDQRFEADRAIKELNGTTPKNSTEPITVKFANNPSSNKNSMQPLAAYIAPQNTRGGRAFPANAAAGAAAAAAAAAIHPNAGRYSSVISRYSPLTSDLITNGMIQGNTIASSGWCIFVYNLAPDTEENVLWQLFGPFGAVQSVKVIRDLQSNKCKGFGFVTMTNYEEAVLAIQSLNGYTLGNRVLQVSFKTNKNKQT

With AAAUU [RNAcompete motif RNCMPT00131] as the substance, how does the binding signal (z-score (mean of top ten 7-mers)) [1] read?
Its binding signal (z-score (mean of top ten 7-mers)) is 13.5.

With AGCAC [RNAcompete motif RNCMPT00133] as the substance, how does the binding signal (z-score (mean of top ten 7-mers)) [2] read?
Its binding signal (z-score (mean of top ten 7-mers)) is 12.9.

With CAUCAUCG [RNAcompete motif RNCMPT00127] as the substance, how does the binding signal (z-score (mean of top ten 7-mers)) [3] read?
The binding signal (z-score (mean of top ten 7-mers)) was 10.7.

With UUUNGUU [RNAcompete motif RNCMPT00132] as the substance, how does the binding signal (z-score (mean of top ten 7-mers)) [4] read?
The binding signal (z-score (mean of top ten 7-mers)) was 15.5.
